Measurements from PMC4200520.

Target: XMAP-Ct, C-terminal coiled-coil fragment of XMAP215 (Xenopus) (UniProt Q9PT63)
Test: SPR
Details: domain or fragment

XMAP-Ct, C-terminal coiled-coil fragment of XMAP215 (Xenopus), sequence (Q9PT63 2002-2065): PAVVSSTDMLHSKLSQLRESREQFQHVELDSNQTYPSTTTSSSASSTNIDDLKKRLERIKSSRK
TD5, TACC domain fragment of XTACC3 with a deletion of helix α1, sequence (Q9PTG8 whole entry, stated change not applied, the tested form may be a part): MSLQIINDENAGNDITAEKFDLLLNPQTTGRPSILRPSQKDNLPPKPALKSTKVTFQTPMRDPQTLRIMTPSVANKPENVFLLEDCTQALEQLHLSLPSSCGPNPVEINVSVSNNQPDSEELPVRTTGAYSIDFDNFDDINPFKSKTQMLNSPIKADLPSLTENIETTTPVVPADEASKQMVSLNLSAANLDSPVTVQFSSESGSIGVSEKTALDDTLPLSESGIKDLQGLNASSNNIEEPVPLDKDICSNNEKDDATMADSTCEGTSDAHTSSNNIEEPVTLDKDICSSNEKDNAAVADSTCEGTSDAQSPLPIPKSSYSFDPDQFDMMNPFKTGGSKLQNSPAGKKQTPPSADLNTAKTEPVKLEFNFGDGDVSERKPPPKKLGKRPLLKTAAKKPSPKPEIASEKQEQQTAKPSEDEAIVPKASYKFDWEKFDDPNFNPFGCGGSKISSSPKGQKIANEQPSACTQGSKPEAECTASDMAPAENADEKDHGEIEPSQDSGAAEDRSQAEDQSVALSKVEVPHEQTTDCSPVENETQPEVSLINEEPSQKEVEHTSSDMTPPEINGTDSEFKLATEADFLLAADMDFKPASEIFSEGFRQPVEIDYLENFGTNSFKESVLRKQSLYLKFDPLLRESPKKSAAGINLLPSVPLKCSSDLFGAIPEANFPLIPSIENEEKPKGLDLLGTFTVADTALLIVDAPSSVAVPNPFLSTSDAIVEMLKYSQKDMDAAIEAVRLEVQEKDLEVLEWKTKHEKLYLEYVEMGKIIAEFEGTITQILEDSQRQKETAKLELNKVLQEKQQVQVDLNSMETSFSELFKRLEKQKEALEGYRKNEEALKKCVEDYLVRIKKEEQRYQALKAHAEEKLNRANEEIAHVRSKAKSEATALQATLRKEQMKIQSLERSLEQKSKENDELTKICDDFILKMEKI

## TD5, TACC domain fragment of XTACC3 with a deletion of helix α1
  Kd: 4.3 µM
